Patent US20240409647A1 (SINOMAB BIOSCIENCE, published 2024)

T1: human IL-33 (R&D systems) (human, UniProt O95760 112-270)
T1 sequence (looked up): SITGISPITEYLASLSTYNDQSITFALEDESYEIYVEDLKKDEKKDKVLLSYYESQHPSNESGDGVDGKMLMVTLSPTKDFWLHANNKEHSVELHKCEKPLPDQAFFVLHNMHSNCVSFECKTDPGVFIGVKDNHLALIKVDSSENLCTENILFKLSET


Columns and labels:
human TSLP (R&D systems) = target: T2, human TSLP (R&D systems) (human, UniProt Q969D9 29-159); experiment: BLI (Octet RED96), binder captured via anti-human Fab CH1, TSLP in solution
T2 construct: also called thymic stromal lymphopoietin
Protocol: (§1) Biosensors immobilized with irrelevant antibody (SM03, anti-human CD22 chimeric IgG1 antibody, SinoMab BioScience Limited, 20 μg/mL) were used as control reference.

[1] = target: T1, human IL-33 (R&D systems); experiment: BLI (Octet RED96), binder captured via anti-human Fab CH1, IL33 in solution
Protocol: as §1

Binder | Kd (human TSLP (R&D systems)) | koff (human TSLP (R&D systems)) | kon (human TSLP (R&D systems)) | Kd [1] | koff [1] | kon [1]
SM17-anti IL-33 2# bsBp (bispecific antibody, human IgG4 S228P, kappa, SM17 IgG with an anti-IL-33 scFv fused to the C-terminus of each heavy chain) heavy: not shown light: DIQMTQSPSSLSASVGDRVTITCRASENINSNLAWYQQKPGKAPKLLLYDVTNLADGVPSRFSGSGSGTDYTLTISSLQPEDFATYYCQHFWGPPYTFGGGTKVEIKRTVAAPSVFIFPPSDEQLKSGTASVVCLLNNFYPREAKVQWKVDNALQSGNSQESVTEQDSKDSTYSLSSTLTLSKADYEKHKVYACEVTHQGLSSPVTKSFNRGEC |  |  |  | < 25.9 pM | < 1e-07 s⁻¹ | 37300 M⁻¹ s⁻¹
SM17-anti IL-33 3# bsBp (bispecific antibody, human IgG4 S228P, kappa, SM17 IgG with an anti-IL-33 scFv fused to the C-terminus of each heavy chain) heavy: not shown light: DIQMTQSPSSLSASVGDRVTITCRASENINSNLAWYQQKPGKAPKLLLYDVTNLADGVPSRFSGSGSGTDYTLTISSLQPEDFATYYCQHFWGPPYTFGGGTKVEIKRTVAAPSVFIFPPSDEQLKSGTASVVCLLNNFYPREAKVQWKVDNALQSGNSQESVTEQDSKDSTYSLSSTLTLSKADYEKHKVYACEVTHQGLSSPVTKSFNRGEC |  |  |  | ≤ 42.5 pM | < 1e-07 s⁻¹ | 22700 M⁻¹ s⁻¹
SM17-anti IL-33 1# bsBp (bispecific antibody, human IgG4 S228P, kappa, SM17 IgG with an anti-IL-33 scFv fused to the C-terminus of each heavy chain) heavy: not shown light: DIQMTQSPSSLSASVGDRVTITCRASENINSNLAWYQQKPGKAPKLLLYDVTNLADGVPSRFSGSGSGTDYTLTISSLQPEDFATYYCQHFWGPPYTFGGGTKVEIKRTVAAPSVFIFPPSDEQLKSGTASVVCLLNNFYPREAKVQWKVDNALQSGNSQESVTEQDSKDSTYSLSSTLTLSKADYEKHKVYACEVTHQGLSSPVTKSFNRGEC |  |  |  | 28900 pM | 0.000283 s⁻¹ | 9810 M⁻¹ s⁻¹

More lines, now with the values ahead:

Kd (human TSLP (R&D systems)) | koff (human TSLP (R&D systems)) | kon (human TSLP (R&D systems)) | Kd [1] | koff [1] | kon [1] | Binder
511 pM | 0.000241 s⁻¹ | 472000 M⁻¹ s⁻¹ |  |  |  | SM17-anti TSLP 1# bsBp (bispecific antibody, human IgG4 S228P, kappa, SM17 IgG with an anti-TSLP scFv fused to the C-terminus of each heavy chain; expressed in ExpiCHO-S cells) heavy: not shown light: DIQMTQSPSSLSASVGDRVTITCRASENINSNLAWYQQKPGKAPKLLLYDVTNLADGVPSRFSGSGSGTDYTLTISSLQPEDFATYYCQHFWGPPYTFGGGTKVEIKRTVAAPSVFIFPPSDEQLKSGTASVVCLLNNFYPREAKVQWKVDNALQSGNSQESVTEQDSKDSTYSLSSTLTLSKADYEKHKVYACEVTHQGLSSPVTKSFNRGEC
< 1 pM | < 1e-07 s⁻¹ | 374000 M⁻¹ s⁻¹ |  |  |  | SM17-anti TSLP 2# bsBp (bispecific antibody, human IgG4 S228P, kappa, SM17 IgG with an anti-TSLP scFv fused to the C-terminus of each heavy chain; also called SM17-anti-TSLP bsBp 2 #) heavy: not shown light: DIQMTQSPSSLSASVGDRVTITCRASENINSNLAWYQQKPGKAPKLLLYDVTNLADGVPSRFSGSGSGTDYTLTISSLQPEDFATYYCQHFWGPPYTFGGGTKVEIKRTVAAPSVFIFPPSDEQLKSGTASVVCLLNNFYPREAKVQWKVDNALQSGNSQESVTEQDSKDSTYSLSSTLTLSKADYEKHKVYACEVTHQGLSSPVTKSFNRGEC
